{"source": "the nanobody polyreactivity screen of Harvey et al. (2022)", "data": [{"experiment": "yeast display, Sf9 membrane polyspecificity reagent, FACS + sequencing; frameworks hold sequencing errors", "method_in_brief": "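Nanobodies came from a synthetic yeast display library in Saccharomyces cerevisiae BJ5465, induced with galactose for 36–48 hours and stained for 1 hour at 4 °C with 10% biotinylated, detergent-solubilized Sf9 membrane reagent. Cells were enriched on streptavidin microbeads and then FACS-sorted, with low and high (top ~1%) gates set on anti-HA fluorescence for expression and streptavidin fluorescence for reagent binding. Each polyreactivity label reflects the gate a clone came from. Genes were amplified by colony PCR, sequenced by MiSeq 2 × 250 and filtered by CDR length.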", "values": [{"sequence": "QVQLVESGGGLVQAGGSLRLSCAASGLTFYDYAMGWYRQAPGKERELVADIDFNGGSTSYADSVKGRFTISRDNAKNTVYLQMNSLKREDTAVYYCNTRDRGDVVTGLDYWGQGTQVTVSS", "polyreactivity (PSR sort gate)": "low polyreactivity"}, {"sequence": "QVQLVESGGGLVQAGGSLRLSCAASGLTFYGNAMGWYRQAPGKERELVAAITSNGGSTYYADSVKGRFTISRDNAKNTVYLQMISLKPEDTAVYYCNVDTGYDYWYPGYGYWGQGTQVTVSS", "polyreactivity (PSR sort gate)": "low polyreactivity"}, {"sequence": "QVQLVESGGGLVQAGGSLRLSCAASGLTFYGYAMGWYRQAPGKERELVAAIRWSGGRTYYADSVKGRFTISRDNAKNTVYLQMNSLKPEDTAVYYCAADYRRYYGGDYWGQGTQVTVSS", "polyreactivity (PSR sort gate)": "low polyreactivity"}, {"sequence": "QVQLVESGGGLVQAGGSLRLSCAASGLTFYINDMGWYRQAPGKERELVAAITRGGSTNYADSVKGRLTISRDNAKNTVYLQMNSLKPEDTAVYYCAAGARYGYGYWGHGTQVTVSS", "polyreactivity (PSR sort gate)": "high polyreactivity"}, {"sequence": "QVQLVESGGGLVQAGGSLRLSCAASGLTFYKNAMGWYRQAPGKVRELVAVISSSGGSTYYADSVKGRFTISRDKAKNTVYLQMNSLKPEDTAVYYCARDLYTEYRWGRLTYDYWGQGTQVTVSS", "polyreactivity (PSR sort gate)": "low polyreactivity"}, {"sequence": "QVQLVESGGGLVQAGGSLRLSCAASGLTFYLYAMGWYRQAPGKERELVAAISRSGGSTYYADSVKGRFTISRDNAKNTVYVQMYSLKPEDTAVYYCAAVTYYPEIRKYYDWRQGTQVTVSS", "polyreactivity (PSR sort gate)": "high polyreactivity"}, {"sequence": "QVQLVESGGGLVQAGGSLRLSCAASGLTFYNNAMGWYRQAPGKERELVARISSGGSTYYADSVKGRFTISRDNAKNTVYLQMNSLKPEDTAVYYCAAGRGYWWWYGYDYWGQGTQVTVSS", "polyreactivity (PSR sort gate)": "low polyreactivity"}, {"sequence": "QVQLVESGGGLVQAGGSLRLSCAASGLTFYPYTMGWYRQAPGKERELVAAISSGGSTYYADSVKGRFTISRDNAKNTVYLQMNSLKPEDTAVYYCAARYPYFSYGYWGQGTQVTVSS", "polyreactivity (PSR sort gate)": "high polyreactivity"}, {"sequence": "QVQLVESGGGLVQAGGSLRLSCAASGLTFYQYALGWSRQAPGNDREWVAAITRGGTTNYADSVKGRFTISRDNAKNTVYLQMNSLKPEDTAVYYCNKGLVFDGYDYWGQGTQVTVSS", "polyreactivity (PSR sort gate)": "high polyreactivity"}, {"sequence": "QVQLVESGGGLVQAGGSLRLSCAASGLTFYQYAMGWYRQAPGKERELVAAISQSAGSTYYADSVKGRFTISRDNAKNTVYLQMNSLKPEDTAVYYCAARVLRLRYDYWGQGTQVTVSS", "polyreactivity (PSR sort gate)": "high polyreactivity"}, {"sequence": "QVQLVESGGGLVQAGGSLRLSCAASGLTFYRNVMGWYRQAPGKERELVAVITSGGRTNYADSVKGRFTISRDNAKNTVYLQMNSLKPEDTAVYYCNTALSSRSNKMYYWGQGTQVTVSS", "polyreactivity (PSR sort gate)": "high polyreactivity"}, {"sequence": "QVQLVESGGGLVQAGGSLRLSCAASGLTFYRYTMGWYRQAPGKERELVAAIRSSGGRTYYADSVKGRFTISRDNAKNTVYLQKNSLKPEDTAVYYCNAVRYNSVGYVYWGQGTQVTVSS", "polyreactivity (PSR sort gate)": "high polyreactivity"}, {"sequence": "QVQLVESGGGLVQAGGSLRLSCAASGLTFYSNAMRWYRQAPGKEREVVARISTGGSTYADSVKGRFTISRDNAKKTVYLQMNSLKPQDTEVYYCAKLPPRGIDDEYWGQGTQVTVSS", "polyreactivity (PSR sort gate)": "low polyreactivity"}, {"sequence": "QVQLVESGGGLVQAGGSLRLSCAASGLTFYSYAMGWYRQAPGKERELVAAISKSGGSTYYADSVKGRFTISRDNAKNSVYLQMNSLKPEDTAVYYCNALTKTGTPPDYDYWGQGTQVTVSS", "polyreactivity (PSR sort gate)": "high polyreactivity"}, {"sequence": "QVQLVESGGGLVQAGGSLRLSCAASGLTFYSYAMGWYSPAPGKERELVAAITSSGSITYYADSVKGRFTISRDNAKNTVYLQMNSLKPEDTAVYYCAARPYRVRGQRFEGNYWGQGTQVTVSS", "polyreactivity (PSR sort gate)": "high polyreactivity"}, {"sequence": "QVQLVESGGGLVQAGGSLRLSCAASGLTFYTYAMGWYRQAPGKERELVAAISSGGSTNYADSVKGRFTISRDNAKNTVYLQMNSLKPEDTAVYYCAADPSYYTYFSFDLSESDYWGLGTQVTVSS", "polyreactivity (PSR sort gate)": "low polyreactivity"}, {"sequence": "QVQLVESGGGLVQAGGSLRLSCAASGLTFYTYAMGWYRQAPGKERELVAAITYSGGRTSYADSVKGRFTISRDNAKNTVYLQMNSLKPEDTAVYYCAARTLGRRLDYGYWGQGTQVTVSS", "polyreactivity (PSR sort gate)": "low polyreactivity"}, {"sequence": "QVQLVESGGGLVQAGGSLRLSCAASGLTFYVNAMGWYRQAPGKEMELVAAITRGGSTNYADSVKGRFTISRDNAKNTVYLQMNSLKPVDTAVYYCNARKRYHSRYSGGYREGYWGQGTQVTVSS", "polyreactivity (PSR sort gate)": "low polyreactivity"}, {"sequence": "QVQLVESGGGLVQAGGSLRLSCAASGLTFYVYAMGWYRQAPGKERELVAAISGRGGRTYYADSVKGRLTISRDNAKNTVYLQMNSLKPEDTAVYYCNRDYAVFSYGEYDSWGQGTQVTVSS", "polyreactivity (PSR sort gate)": "high polyreactivity"}, {"sequence": "QVQLVESGGGLVQAGGSLRLSCAASGLTFYVYAMGWYRQAPGKERELVAAISSGGRTYYADSVKGRFTISRDNAKNTVYLQMNSLKPEDTAVYFCAAVRHRNYGYWGQGTQVTVSS", "polyreactivity (PSR sort gate)": "high polyreactivity"}, {"sequence": "QVQLVESGGGLVQAGGSLRLSCAASGLTFYVYAMGWYRQAPGKERELVAAISSGGRTYYADSVKGRFTISRDNAKNTVYLQMTSLKPEDTAVYYCAAVRHRNYGYWGQGTQVTVSS", "polyreactivity (PSR sort gate)": "high polyreactivity"}, {"sequence": "QVQLVESGGGLVQAGGSLRLSCAASGLTFYYYAMGWYRQAPGKERELVAAISATGGRTDYADSVKGRFTISRDNAKNTVYLQMNSLKPADPAVYYCAADTPYLRRRRGMDYWGQGTQVTVSS", "polyreactivity (PSR sort gate)": "high polyreactivity"}, {"sequence": "QVQLVESGGGLVQAGGSLRLSCAASGLTFYYYAMGWYRQAPGKERELVAAITGSGGRTSYADSVKGRFTISRDNAKNTVYLQMNSLKPEDTAVYYCAARNKRRGYPWQGQQKVLNFDYWGQGTQVTVSS", "polyreactivity (PSR sort gate)": "high polyreactivity"}, {"sequence": "QVQLVESGGGLVQAGGSLRLSCAASGLTFYYYYTMGWYRQAPGKERELVAAISRSGSTNYADSVKGRFTISRDNAKNTVYLQMNSLKPEDTAVYYCARSYRSDGSRFGYWGQGTQVTVSS", "polyreactivity (PSR sort gate)": "low polyreactivity"}, {"sequence": "QVQLVESGGGLVQAGGSLRLSCAASGLTIFVNAMGWYRQAPGKERELVATISGGGSTYYADSVKGRFTISRDNAKNTVYLQMNSLKPEDTAVYYCNADVLFYTYYTRGRFDFDYWGQGTQVTVSS", "polyreactivity (PSR sort gate)": "low polyreactivity"}, {"sequence": "QVQLVESGGGLVQAGGSLRLSCAASGLTIKPNAMGWYRQAPGKERELVAAIDWSGGSTYCADSVKGRFTISRDNAKNTVDLQMNSLKPEDTAVYYCAADPPDRLFLYDYWGQGTQVTVSS", "polyreactivity (PSR sort gate)": "low polyreactivity"}, {"sequence": "QVQLVESGGGLVQAGGSLRLSCAASGLTIQRNDMGWYRQAPGKEREFVATITSNAGSTYYADSVKGRFTISRDNAKNPVYFQMNSLKPEDTAVYYWARERWWGGSDYWGQGTQVTVSS", "polyreactivity (PSR sort gate)": "high polyreactivity"}, {"sequence": "QVQLVESGGGLVQAGGSLRLSCAASGLTIQYNAMVWYRQAPGKERELVAAISRSGGSTYYADSVKGRFTISRDNAKNTEYLQMISLKPEDTAVYYCNKVSPYRGYYWGQGTQVTVSS", "polyreactivity (PSR sort gate)": "high polyreactivity"}, {"sequence": "QVQLVESGGGLVQAGGSLRLSCAASGLTISTNAMGWYRQAPGKERELVAAISRAGSTYYADSVKGRFTISRDNAKNTVYLQMNSLKPEDTAVYYCAAKYRYSTYHRGSFNFWGQGTQVTVSS", "polyreactivity (PSR sort gate)": "high polyreactivity"}, {"sequence": "QVQLVESGGGLVQAGGSLRLSCAASGLTISWNAMGWYRQAPGKERELVAAISSRGGSTYYADSVKGRFKISRDNAKNTVYLQMNSLKPEDTAVYYCAAEGYTYYPVYSTRMYYWGQGTQVTVSS", "polyreactivity (PSR sort gate)": "low polyreactivity"}, {"sequence": "QVQLVESGGGLVQAGGSLRLSCAASGLTISYYAMGRYRQAPGKERELVAAISTDSSTNYADSVKGRFTISRDNAKNTVYLQMNSLKPEDTAVYYCAAVPRGTQCAMDYWGQGTQVTVSS", "polyreactivity (PSR sort gate)": "low polyreactivity"}, {"sequence": "QVQLVESGGGLVQAGGSLRLSCAASGLTITSNAMGWYRQAPGKERELVASITWSGGSTSYADSVKGRFTISRDNAKNTVYLQMNSLKPEDTAVYDCAADRQRSHRVGTKGHRVGYWGQGTQVTVSS", "polyreactivity (PSR sort gate)": "high polyreactivity"}, {"sequence": "QVQLVESGGGLVQAGGSLRLSCAASGLTIWKYTMGWYRQAPGKERELVAAISISGTNTYYADSVKGRFTISRDNAKNTVYLQMNSLKPEDTAVYYCAAVRGYPPTNYYYWGQGTQVSVSS", "polyreactivity (PSR sort gate)": "high polyreactivity"}, {"sequence": "QVQLVESGGGLVQAGGSLRLSCAASGLTIYAYAMGWYRQAPGKERELVAIISYNGGRTYYADSVKGRFTISRDNAKNTVYLQMNSLKPEDTAVYYCAARGREVRYDYWGQGTQVTVSS", "polyreactivity (PSR sort gate)": "high polyreactivity"}, {"sequence": "QVQLVESGGGLVQAGGSLRLSCAASGLTLETNAMGWYRQAPGKERELVAGITYSGGTTYYADSVKGRFTISRDNAKNTVYLQMNSLKPEDTAVYYCNAQERRVRDYDYWGQGTEVTVSS", "polyreactivity (PSR sort gate)": "low polyreactivity"}, {"sequence": "QVQLVESGGGLVQAGGSLRLSCAASGLTLGSYALGWYRQAPGKERELVAAISRRSGRTYYADSVKGRFTISRDNAKNTVYLQMNSLKPEDTAVYYCNRGYTAQVYTEFDYWGQGTQVTVSS", "polyreactivity (PSR sort gate)": "low polyreactivity"}, {"sequence": "QVQLVESGGGLVQAGGSLRLSCAASGLTLPYNAMGSYRQAPGKERELVAAITCIGGSTYYADSVKGRFTISRDNAKNTVYLEMNSLKPEDSAVYYCAKEVRGPIIYLEGYWGQGTQVTVSS", "polyreactivity (PSR sort gate)": "low polyreactivity"}, {"sequence": "QVQLVESGGGLVQAGGSLRLSCAASGLTLSGYAMGWYRQAPGKERELVAAISSTGGSTYYADSVKGRFTISRDNAKNTVYLQMNSLKPEATAVYYCAKGYSPTRVRLRYPRYDTYNHWGQVTQVTVSS", "polyreactivity (PSR sort gate)": "high polyreactivity"}, {"sequence": "QVQLVESGGGLVQAGGSLRLSCAASGLTLSYTMGWYRQAPGKERELVASITWSGTRTYYADSVKGRFTISRDNAKNTVYLQMNSLKPEDTAVYYCARRSSYGSWGYNYWGQGTQVTVSS", "polyreactivity (PSR sort gate)": "high polyreactivity"}, {"sequence": "QVQLVESGGGLVQAGGSLRLSCAASGLTLTYYAMGWYRQAPGKERELVAAISSSGGSTYYADSVKGRFTISRDNAKNTVYLQMNSLKPEDAAVYYCAATRVSWTGRDDYWGQGTQVTVSS", "polyreactivity (PSR sort gate)": "high polyreactivity"}, {"sequence": "QVQLVESGGGLVQAGGSLRLSCAASGLTLTYYAMGWYRQAPGKERELVAAISSSGGSTYYADSVKGRFTISRDNAKNTVYLQMNSLKPEDTAVYYCAATRVSWTGRDDYWGQGTQVTVSS", "polyreactivity (PSR sort gate)": "high polyreactivity"}, {"sequence": "QVQLVESGGGLVQAGGSLRLSCAASGLTLVTIGMGWYSQAPAKERELVAAIDSTGGRTYYADSVKGRFTISRDNAKKTVYLQMTSLKPEDTAVSYCNRRWYARAAYWGQGTQVTVSS", "polyreactivity (PSR sort gate)": "high polyreactivity"}, {"sequence": "QVQLVESGGGLVQAGGSLRLSCAASGLTLYGYTMGWYRQAPGKERELGATITTGGDYTYYADSVKGRFTISRDNAKNTVYLQMNRLKPVDTAVYYCAAYSYGWDYSYDYWGQVTQVTVSS", "polyreactivity (PSR sort gate)": "low polyreactivity"}]}]}
